B1: 2K2A (parent)
chain: ELREAFRLYDKEGNGYISTDVMREILAELDETLSSEDLDAMIDEIDADGSGTVDFEEFMGVMT

Variants of: B1
Assay: folding stability dG (cDNA display proteolysis); higher = more stable
Details: PBS, room temperature

**Q.** For ELREAFRLYDKEGNEYISTDVMREILAELDETLSSEDLDAMIDEIDADGSGTVDFEEFMGVMT [G15E], which “folding stability dG” value is on record?
**A.** 0.488 kcal/mol

**Q.** For ELREAFRLYDKEGNFYISTDVMREILAELDETLSSEDLDAMIDEIDADGSGTVDFEEFMGVMT [G15F], which “folding stability dG” value is on record?
**A.** 0.687 kcal/mol

**Q.** With ELREAFRLYDKEGNKYISTDVMREILAELDETLSSEDLDAMIDEIDADGSGTVDFEEFMGVMT [G15K] as the variant, how does the “folding stability dG” value read?
**A.** 0.271 kcal/mol

**Q.** With ELREAFRLYDKEGNCYISTDVMREILAELDETLSSEDLDAMIDEIDADGSGTVDFEEFMGVMT [G15C] as the variant, how does the “folding stability dG” value read?
**A.** 1.1 kcal/mol

**Q.** Which “folding stability dG” value does the source give for ELREAFRLYDKEGNIYISTDVMREILAELDETLSSEDLDAMIDEIDADGSGTVDFEEFMGVMT [G15I] here?
**A.** 0.513 kcal/mol

**Q.** Which “folding stability dG” value does the source give for ELREAFRLYDKEGNHYISTDVMREILAELDETLSSEDLDAMIDEIDADGSGTVDFEEFMGVMT [G15H] here?
**A.** 0.458 kcal/mol

**Q.** For ELREAFRLYDKEGNAYISTDVMREILAELDETLSSEDLDAMIDEIDADGSGTVDFEEFMGVMT [G15A], which “folding stability dG” value is on record?
**A.** 0.588 kcal/mol

**Q.** Which “folding stability dG” value does the source give for ELREAFRLYDKEGNDYISTDVMREILAELDETLSSEDLDAMIDEIDADGSGTVDFEEFMGVMT [G15D] here?
**A.** 0.537 kcal/mol

**Q.** With ELREAFRLYDKEGKGYISTDVMREILAELDETLSSEDLDAMIDEIDADGSGTVDFEEFMGVMT [N14K] as the variant, how does the “folding stability dG” value read?
**A.** 2.09 kcal/mol

**Q.** Which “folding stability dG” value does the source give for ELREAFRLYDKEGLGYISTDVMREILAELDETLSSEDLDAMIDEIDADGSGTVDFEEFMGVMT [N14L] here?
**A.** 2.17 kcal/mol

**Q.** Which “folding stability dG” value does the source give for ELREAFRLYDKEGWGYISTDVMREILAELDETLSSEDLDAMIDEIDADGSGTVDFEEFMGVMT [N14W] here?
**A.** 1.38 kcal/mol

**Q.** For ELREAFRLYDKEGFGYISTDVMREILAELDETLSSEDLDAMIDEIDADGSGTVDFEEFMGVMT [N14F], which “folding stability dG” value is on record?
**A.** 1.7 kcal/mol

**Q.** For ELREAFRLYDKEGYGYISTDVMREILAELDETLSSEDLDAMIDEIDADGSGTVDFEEFMGVMT [N14Y], which “folding stability dG” value is on record?
**A.** 1.6 kcal/mol

**Q.** Which “folding stability dG” value does the source give for ELREAFRLYDKEGCGYISTDVMREILAELDETLSSEDLDAMIDEIDADGSGTVDFEEFMGVMT [N14C] here?
**A.** 1.43 kcal/mol

**Q.** For ELREAFRLYDKEGRGYISTDVMREILAELDETLSSEDLDAMIDEIDADGSGTVDFEEFMGVMT [N14R], which “folding stability dG” value is on record?
**A.** 2.11 kcal/mol

**Q.** For ELREAFRLYDKEGDGYISTDVMREILAELDETLSSEDLDAMIDEIDADGSGTVDFEEFMGVMT [N14D], which “folding stability dG” value is on record?
**A.** 1.3 kcal/mol

**Q.** Which “folding stability dG” value does the source give for ELREAFRLYDKEGGGYISTDVMREILAELDETLSSEDLDAMIDEIDADGSGTVDFEEFMGVMT [N14G] here?
**A.** 0.728 kcal/mol

**Q.** Which “folding stability dG” value does the source give for ELREAFRLYDKEGAGYISTDVMREILAELDETLSSEDLDAMIDEIDADGSGTVDFEEFMGVMT [N14A] here?
**A.** 1.55 kcal/mol

**Q.** For ELREAFRLYDKEGVGYISTDVMREILAELDETLSSEDLDAMIDEIDADGSGTVDFEEFMGVMT [N14V], which “folding stability dG” value is on record?
**A.** 2.07 kcal/mol

**Q.** With ELREAFRLYDKEGIGYISTDVMREILAELDETLSSEDLDAMIDEIDADGSGTVDFEEFMGVMT [N14I] as the variant, how does the “folding stability dG” value read?
**A.** 1.73 kcal/mol

**Q.** With ELREAFRLYDKEGSGYISTDVMREILAELDETLSSEDLDAMIDEIDADGSGTVDFEEFMGVMT [N14S] as the variant, how does the “folding stability dG” value read?
**A.** 1.5 kcal/mol

**Q.** Which “folding stability dG” value does the source give for ELREAFRLYDKEGTGYISTDVMREILAELDETLSSEDLDAMIDEIDADGSGTVDFEEFMGVMT [N14T] here?
**A.** 1.74 kcal/mol

**Q.** Which “folding stability dG” value does the source give for ELREAFRLYDKEGPGYISTDVMREILAELDETLSSEDLDAMIDEIDADGSGTVDFEEFMGVMT [N14P] here?
**A.** -0.347 kcal/mol

**Q.** With ELREAFRLYDKEGEGYISTDVMREILAELDETLSSEDLDAMIDEIDADGSGTVDFEEFMGVMT [N14E] as the variant, how does the “folding stability dG” value read?
**A.** 0.908 kcal/mol

**Q.** For ELREAFRLYDKEGQGYISTDVMREILAELDETLSSEDLDAMIDEIDADGSGTVDFEEFMGVMT [N14Q], which “folding stability dG” value is on record?
**A.** 1.53 kcal/mol

**Q.** With ELREAFRLYDKEGMGYISTDVMREILAELDETLSSEDLDAMIDEIDADGSGTVDFEEFMGVMT [N14M] as the variant, how does the “folding stability dG” value read?
**A.** 1.78 kcal/mol

**Q.** With ELREAFRLYDKEGHGYISTDVMREILAELDETLSSEDLDAMIDEIDADGSGTVDFEEFMGVMT [N14H] as the variant, how does the “folding stability dG” value read?
**A.** 1.63 kcal/mol

**Q.** For ELREAFRLYDKELNGYISTDVMREILAELDETLSSEDLDAMIDEIDADGSGTVDFEEFMGVMT [G13L], which “folding stability dG” value is on record?
**A.** 1.11 kcal/mol

**Q.** Which “folding stability dG” value does the source give for ELREAFRLYDKEQNGYISTDVMREILAELDETLSSEDLDAMIDEIDADGSGTVDFEEFMGVMT [G13Q] here?
**A.** 1.26 kcal/mol

**Q.** Which “folding stability dG” value does the source give for ELREAFRLYDKEMNGYISTDVMREILAELDETLSSEDLDAMIDEIDADGSGTVDFEEFMGVMT [G13M] here?
**A.** 1.23 kcal/mol

**Q.** With ELREAFRLYDKEVNGYISTDVMREILAELDETLSSEDLDAMIDEIDADGSGTVDFEEFMGVMT [G13V] as the variant, how does the “folding stability dG” value read?
**A.** 0.792 kcal/mol

**Q.** Which “folding stability dG” value does the source give for ELREAFRLYDKEYNGYISTDVMREILAELDETLSSEDLDAMIDEIDADGSGTVDFEEFMGVMT [G13Y] here?
**A.** 0.607 kcal/mol

**Q.** For ELREAFRLYDKEPNGYISTDVMREILAELDETLSSEDLDAMIDEIDADGSGTVDFEEFMGVMT [G13P], which “folding stability dG” value is on record?
**A.** -0.146 kcal/mol

**Q.** For ELREAFRLYDKENNGYISTDVMREILAELDETLSSEDLDAMIDEIDADGSGTVDFEEFMGVMT [G13N], which “folding stability dG” value is on record?
**A.** 1.74 kcal/mol

**Q.** For ELREAFRLYDKEINGYISTDVMREILAELDETLSSEDLDAMIDEIDADGSGTVDFEEFMGVMT [G13I], which “folding stability dG” value is on record?
**A.** 0.538 kcal/mol

**Q.** With ELREAFRLYDKEENGYISTDVMREILAELDETLSSEDLDAMIDEIDADGSGTVDFEEFMGVMT [G13E] as the variant, how does the “folding stability dG” value read?
**A.** 1.1 kcal/mol

**Q.** With ELREAFRLYDKETNGYISTDVMREILAELDETLSSEDLDAMIDEIDADGSGTVDFEEFMGVMT [G13T] as the variant, how does the “folding stability dG” value read?
**A.** 0.448 kcal/mol

**Q.** Which “folding stability dG” value does the source give for ELREAFRLYDKEKNGYISTDVMREILAELDETLSSEDLDAMIDEIDADGSGTVDFEEFMGVMT [G13K] here?
**A.** 1.14 kcal/mol

**Q.** For ELREAFRLYDKEHNGYISTDVMREILAELDETLSSEDLDAMIDEIDADGSGTVDFEEFMGVMT [G13H], which “folding stability dG” value is on record?
**A.** 1.15 kcal/mol

**Q.** For ELREAFRLYDKEFNGYISTDVMREILAELDETLSSEDLDAMIDEIDADGSGTVDFEEFMGVMT [G13F], which “folding stability dG” value is on record?
**A.** 0.932 kcal/mol

**Q.** For ELREAFRLYDKEWNGYISTDVMREILAELDETLSSEDLDAMIDEIDADGSGTVDFEEFMGVMT [G13W], which “folding stability dG” value is on record?
**A.** 0.579 kcal/mol

**Q.** Which “folding stability dG” value does the source give for ELREAFRLYDKESNGYISTDVMREILAELDETLSSEDLDAMIDEIDADGSGTVDFEEFMGVMT [G13S] here?
**A.** 1.18 kcal/mol

**Q.** With ELREAFRLYDKERNGYISTDVMREILAELDETLSSEDLDAMIDEIDADGSGTVDFEEFMGVMT [G13R] as the variant, how does the “folding stability dG” value read?
**A.** 1.01 kcal/mol

From the MegaScale stability set (Tsuboyama et al. 2023)
